In patent publication US20240336661A1, “PEPTIDES DERIVED FROM RUMINOCOCCUS TORQUES” (University of Copenhagen, priority 2021, published 2024):

Columns and labels:
integrin αV/β5 receptor = integrin αV/β5 receptor (Homo sapiens, UniProt P06756+P18084); experiment: SPOT peptide microarray (μSPOT) binding assay; conditions: for relative integrin αV/β5 binding in 15-mer peptide library screening: His-tag integrin αV/β5 2.5 nM, semi-quantitative; for relative integrin αV/β5 binding, truncation scanning library of 19-mer epitopes: integrin αV/β5 2.5 nM
Sequence of integrin αV/β5 receptor (P06756 31-992 limits assumed): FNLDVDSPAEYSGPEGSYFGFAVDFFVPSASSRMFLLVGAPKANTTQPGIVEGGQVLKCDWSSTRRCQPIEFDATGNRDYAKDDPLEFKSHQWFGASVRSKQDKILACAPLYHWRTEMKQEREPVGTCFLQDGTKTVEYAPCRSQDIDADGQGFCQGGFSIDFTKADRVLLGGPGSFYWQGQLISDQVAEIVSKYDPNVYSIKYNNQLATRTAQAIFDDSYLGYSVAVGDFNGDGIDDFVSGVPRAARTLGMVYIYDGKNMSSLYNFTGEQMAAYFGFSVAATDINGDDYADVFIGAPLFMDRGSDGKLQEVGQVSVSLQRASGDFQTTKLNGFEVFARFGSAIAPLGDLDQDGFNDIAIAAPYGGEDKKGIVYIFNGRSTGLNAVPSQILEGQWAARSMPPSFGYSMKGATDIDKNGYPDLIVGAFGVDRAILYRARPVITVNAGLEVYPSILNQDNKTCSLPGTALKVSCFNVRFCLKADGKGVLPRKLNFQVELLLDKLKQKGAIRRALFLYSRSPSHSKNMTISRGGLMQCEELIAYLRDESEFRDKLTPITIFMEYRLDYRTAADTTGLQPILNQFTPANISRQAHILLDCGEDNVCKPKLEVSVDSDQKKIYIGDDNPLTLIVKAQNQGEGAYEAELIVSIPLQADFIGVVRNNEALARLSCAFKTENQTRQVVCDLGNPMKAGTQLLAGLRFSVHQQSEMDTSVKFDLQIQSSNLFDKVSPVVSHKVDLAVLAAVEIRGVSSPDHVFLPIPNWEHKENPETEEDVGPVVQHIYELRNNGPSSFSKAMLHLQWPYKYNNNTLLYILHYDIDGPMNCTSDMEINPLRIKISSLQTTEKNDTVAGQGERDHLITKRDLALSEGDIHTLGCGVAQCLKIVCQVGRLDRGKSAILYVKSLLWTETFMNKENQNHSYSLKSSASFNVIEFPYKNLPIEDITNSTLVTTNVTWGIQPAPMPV
Sequence of integrin αV/β5 receptor (P18084 24-719 limits assumed): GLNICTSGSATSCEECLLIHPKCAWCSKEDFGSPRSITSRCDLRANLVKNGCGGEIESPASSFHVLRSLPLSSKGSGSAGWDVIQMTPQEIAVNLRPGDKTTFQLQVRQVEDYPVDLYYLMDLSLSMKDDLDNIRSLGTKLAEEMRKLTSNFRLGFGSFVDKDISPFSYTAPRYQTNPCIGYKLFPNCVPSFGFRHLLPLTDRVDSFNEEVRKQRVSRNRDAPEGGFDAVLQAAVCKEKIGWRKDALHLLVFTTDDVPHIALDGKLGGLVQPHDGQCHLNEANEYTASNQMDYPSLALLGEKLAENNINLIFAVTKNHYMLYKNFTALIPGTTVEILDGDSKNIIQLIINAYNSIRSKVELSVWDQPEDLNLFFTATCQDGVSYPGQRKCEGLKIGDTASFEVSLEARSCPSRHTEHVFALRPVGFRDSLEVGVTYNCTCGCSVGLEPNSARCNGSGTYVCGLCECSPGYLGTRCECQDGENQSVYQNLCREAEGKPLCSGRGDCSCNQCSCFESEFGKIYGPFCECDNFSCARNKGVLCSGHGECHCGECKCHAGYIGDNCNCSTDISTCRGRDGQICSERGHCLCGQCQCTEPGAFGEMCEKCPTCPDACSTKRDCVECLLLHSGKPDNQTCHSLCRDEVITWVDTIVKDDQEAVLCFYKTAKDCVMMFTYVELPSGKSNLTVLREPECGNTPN
Procedure: μSPOT peptide arrays^25 (CelluSpots, Intavis AG, Cologne, Germany) were synthesized using a RePepSL synthesizer (Intavis AG) on acid labile, amino functionalized, cellulose membrane discs (Intavis AG) containing 9-fluorenylmethy-loxycarbonyl-β-alanine (Fmoc-β-Ala) linkers (minimum loading 1.0 μmol/cm). Synthesis was initiated by Fmoc deprotection using 20% piperidine in N-methylpyrrolidone (NMP) (1×2 and 1 ×4 μL, 3 and 5 min, respectively) followed by washing with dimethylforma-mide (DMF, 7×100 μL per disc) and ethanol (EtOH, 3×300 μL per disc). The loading of the discs were reduced to 50%, by using a mixture of Fmoc-Gly-OH and Boc-Gly-OH (0.25 M: 0.25 M in NMP). All couplings were achieved using 1.2 μL of coupling solution consisting of preactivated amino acids (AAs, 0.5 M) with ethyl 2-cyano-2-(hydroxyimino)acetate oxyma (1.5 M) and N,N′-diisopropylcarbodiimide (DIC, 1.1 M) in NMP (2:1:1, AA:oxyma:DIC). The couplings were carried out 6 times (5, 10, 20, 30, 30, and 30 min, respectively), and subsequently, the membrane was capped twice with capping mixture (5% […] in NMP), followed by washes with DMF (7×100 μL per disc). After chain elongation, final Fmoc deprotection was performed with 20% piperidine in NMP (3×4 μL, 5 min each), followed by 6× washes with DMF, subsequent N-terminal acetylation with capping mixture (3×4 μL, 5 min each) and final washes with DMF (7×100 μL per disc) and EtOH (7×200 μL per disc). Dried cellulose membrane discs were transferred to 96 deep-well blocks and were treated with the side-chain deprotection solution consisting of 80% TFA, 12% DCM, 5% H2O, and 3% TIPS (150 μL per well) for 1.5 h at room temperature (rt). Afterward, the deprotection solution was removed, and the discs were solubilized overnight at rt using a solvation mixture containing 88.5% TFA, 4% trifluoromethansufonic acid (TFMSA), 5% H2O, and 2.5% TIPS (250 μL per well). The resulting peptide-cellulose conjugates were precipitated with ice-cold ether (700 μL per well) and spun down at 1000 rpm for 90 min, followed by an additional wash of the formed pellet with ice-cold ether. The resulting pellets were redissolved in DMSO (250 μL per well) to give final stocks, which were transferred to a 384-well plate and printed (in duplicates) on white coated CelluSpots blank slides (76×26 mm, Intavis AG) using a SlideSpotter robot (Intavis AG).
After the peptide array slides were rinsed with 100 mM phosphate buffered saline (PBS) (pH 7.4), the arrays were blocked with 3% bovine serum albumin (BSA) in PBS for >2 h at rt. Subsequently, the arrays were incubated with His-tagged Integrin receptor (2.5 nM) in blocking for 1 h at rt. After 5×1 min washes with blocking buffer the slides were probed with HRP-conjugated 6x-His tag antibody (1:10000, ab184607, abcam) for 0.5 h at rt. Finally, the slides were washed 3×1 min with PBS, 2×1 min with PBST, 2×1 min PBS at rt. The washed arrays visualized using SuperSignal West Femto Maximum Sensitivity Substrate (Thermo Scientific) with Fusion FX SPectra multimodal imaging platform (Vilber). The resulting blots were analyzed using the Array Analyze Software (Active Motif), which defines the error range of each data set by comparing the intensities of each peptide duplicate on the analyzed array.
Prior to the initial screening, we confirmed that the secondary antibody produces no non-specific binding (‘background binding’) to the coated microscopic slide (FIG. 41A). The relative binding affinity of the resulting peptides was then evaluated in a semi-quantitative manner by screening the μSPOT peptide array with recombinantly expressed His-tag integrin αV/β5 (2.5 nM), followed by incubation with a horse radish peroxidase (HRP) conjugated 6x-His antibody (FIG. 41B). […]

integrin receptor = experiment: Integrin inhibitor pre-treatment in RUCILP2 cellular studies; assay type: cell-based; conditions: 10 μM for 10 minutes before RUCILP2
Procedure: Human white pre-adipocytes were cultured until 80% confluent and switched into differentiation media (with 0.3 ml/ml fetal calf serum, 8 μg/ml d-biotin, 0.5 μg/ml insulin, 400 ng/ml dexamethasone). The differentiation process to mature adipocytes was completed after 12-14 days. The treatment of RUCILP2 and irisin started from the third day of differentiation. For integrin complex inhibition, cells were treated with 10 μM of CycloRGDyK (Selleckchem, #S7844) for 10 minutes and washed with PBS before treated with RUCILP2 and irisin, respectively. Cells were harvested after 14 days of differentiation and thermogenesis gene were quantified by quantitative polymerase chain reaction (q-PCR).
Two days after induction, cells were switched to inducing medium in the presence of 15 nM recombinant RUCILP2, or commercial recombinant irisin (Sigma, #SRP8039-10UG and Phoenix pharmaceuticals, #067-29A), or saline for two days. After that, cells were maintained in 86 nM insulin and 1 nM T3 in the presence of indicated concentrations of recombinant RUCILP2 or commercial recombinant irisin, or saline for four days with medium change every other day. For inhibition of the integrin complex, cells were treated with 10 μM of cRGDyK for 10 minutes before treatment with recombinant RUCILP2 or commercial recombinant irisin or saline every other day during 6 days of differentiation. […]

mouse 3T3-L1 fibroblasts = experiment: Gene expression in 3T3-L1 fibroblasts (q-PCR); assay type: cell-based; conditions: 3T3-L1 fibroblasts
Procedure: 3T3-L1 cells (a murine fibroblast cell line) were split onto 12-well plates and grown to confluence before inducing differentiation by treatment with 86 nM insulin, 0.1 μM dexamethasone, and 250 μM methyl isobutylxanthine. Two days after induction, cells were switched to an inducing medium in the presence of recombinant RUCILPs, or commercial recombinant irisin (Sigma, #SRP8039-10UG and Phoenix pharmaceuticals, #067-29A), or phosphate buffered saline (PBS) for two days. Subsequently, cells were maintained in 86 nM insulin in the presence of indicated concentrations of recombinant RUCILPs, 21-AABP1, commercial recombinant irisin, or PBS for four days with medium change every other day for 6 days. Cells were then harvested for q-PCR analysis as described in standard protocol for gene expression analysis.
Total RNA from cells or tissues was extracted according to the instructions provided by manufacturer of RNeasy mini kit (Qiagen) using QIAzol lysis reagent (Qiagen), followed by measurements of RNA purities and concentrations by NanoDrop 2000 spectrophotometer (Thermo Scientific). A total of 1 μg of RNA was used for the reverse transcription to cDNA using the iScript™ Select cDNA Synthesis Kit (Bio-Rad Laboratories). The samples were subjected to real-time PCR using the LC480 system (Roche Diagnostics) after premixing with Precision®PLUS Master Mix (Primer Design). For each indicated gene, samples were run in duplicate in a 384-well plate and ΔΔCt method was used for quantifying the expressions after normalization to the housekeeping Rpl36 or GAPDH gene.
Firstly, we tested the dose-response effects of RUCILPs on gene expression in mouse fibroblasts (3T3-L1), mouse […] (MLO-Y4), and mouse myoblasts (C2C12). To estimate effect on adipocyte browning, we measured expression of Ucp1, Prdm16, Pgc1a, Dio2 and Cox2, and expression of AdipoQ was measured as a marker of white adipocytes. As a marker of bone formation, we measured expression of Sclerostin; and markers of myotube formation included expression of Heyl, Sox3, and Stat3.

Substance	relative integrin αV/β5 binding in 15-mer peptide library screening (integrin αV/β5 receptor)	also measured
SEQ ID NO: 165: 15-mer of RUCILP2, residues 70-84, AAGNESVKSEKVTFK (Ruminococcus torques)	significant binding	–
CycloRGDyK	–	effect of pre-treatment on cellular effects of RUCILP2 (integrin receptor): blocked
SEQ ID NO: 268: 9-mer truncation of RUCILP2 epitope, residues 12-20, ETSAKASWK (Ruminococcus torques)	–	relative integrin αV/β5 binding, truncation scanning library of 19-mer epitopes (integrin αV/β5 receptor): high binding affinity
SEQ ID NO: 169: 19-mer binding epitope of RUCILP1, residues 12-30, ETSAKVSWKNAADGKEAAG (Ruminococcus torques)	binding epitopes	–
21-AABP1: the 21-amino acids fragment derived from RUCILP1 (DGTTYSVEVTAVDAAGEESAK; Ruminococcus torques)	–	effects on browning markers Ucp1, Prdm16, Dio2 (mouse 3T3-L1 fibroblasts): non-significant
SEQ ID NO: 235: 9-mer truncation of RUCILP1 epitope, residues 12-20, ETSAKVSWK (Ruminococcus torques)	–	relative integrin αV/β5 binding, truncation scanning library of 19-mer epitopes (integrin αV/β5 receptor): high binding affinity
SEQ ID NO: 95: C-terminal 15-mer of RUCILP1, residues 74-88, ESAKSEKVEFTTVKK (Ruminococcus torques)	relatively high affinity	–

The next lines start with results.

relative integrin αV/β5 binding in 15-mer peptide library screening (integrin αV/β5 receptor)	Substance	also measured
binding epitopes	SEQ ID NO: 183: 19-mer binding epitope of RUCILP2, residues 12-30, ETSAKASWKNAADGKEAAG (Alanine scanning sequence; (1)..(19) Alanine scanning sequence of RUCILP1)	–
relatively high affinity	SEQ ID NO: 168: C-terminal 15-mer of RUCILP2, residues 73-87, NESVKSEKVTFKTLK (Ruminococcus torques)	–
